# US20240391961A1 (OREGON STATE UNIVERSITY, published 2024)
# Residue numbers refer to the chain shown, from its start. In names and notes the source's numbering stands.
# T1: 14-3-3ζ nhpSer58 with a FLAG tag at its N-terminus (Homo sapiens (Human), UniProt P63104 1-245)
# T1 sequence: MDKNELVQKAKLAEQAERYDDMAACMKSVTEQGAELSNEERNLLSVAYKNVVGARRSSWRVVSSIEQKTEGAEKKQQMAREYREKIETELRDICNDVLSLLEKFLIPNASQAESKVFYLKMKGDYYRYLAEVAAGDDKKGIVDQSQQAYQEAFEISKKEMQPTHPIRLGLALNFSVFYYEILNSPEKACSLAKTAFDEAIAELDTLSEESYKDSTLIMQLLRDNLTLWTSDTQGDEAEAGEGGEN
# B1: 14-3-3 protein eta [OS = Homo sapiens] (other, UniProt Q04917 2-246, looked up)
# chain: GDREQLLQRARLAEQAERYDDMASAMKAVTELNEPLSNEDRNLLSVAYKNVVGARRSSWRVISSIEQKTMADGNEKKLEKVKAYREKIEKELETVCNDVLSLLDKFLIKNCNDFQYESKVFYLKMKGDYYRYLAEVASGEKKNSVVEASEAAYKEAFEISKEQMQPTHPIRLGLALNFSVFYYEIQNAPEQACLLAKQAFDDAIAELDTLNEDSYKDSTLIMQLLRDNLTLWTSDQQDEEAGEGN
# B2: 14-3-3 protein gamma [OS = Homo sapiens] (other, UniProt P61981 1-247, looked up)
# chain: MVDREQLVQKARLAEQAERYDDMAAAMKNVTELNEPLSNEERNLLSVAYKNVVGARRSSWRVISSIEQKTSADGNEKKIEMVRAYREKIEKELEAVCQDVLSLLDNYLIKNCSETQYESKVFYLKMKGDYYRYLAEVATGEKRATVVESSEKAYSEAHEISKEHMQPTHPIRLGLALNYSVFYYEIQNAPEQACHLAKTAFDDAIAELDTLNEDSYKDSTLIMQLLRDNLTLWTSDQQDDDGGEGNN
# B3: Pre-mRNA-splicing factor SLU7 [OS = Homo sapiens] (other, UniProt O95391 2-586, looked up)
# chain: SATVVDAVNAAPLSGSKEMSLEEPKKMTREDWRKKKELEEQRKLGNAPAEVDEEGKDINPHIPQYISSVPWYIDPSKRPTLKHQRPQPEKQKQFSSSGEWYKRGVKENSIITKYRKGACENCGAMTHKKKDCFERPRRVGAKFTGTNIAPDEHVQPQLMFDYDGKRDRWNGYNPEEHMKIVEEYAKVDLAKRTLKAQKLQEELASGKLVEQANSPKHQWGEEEPNSQMEKDHNSEDEDEDKYADDIDMPGQNFDSKRRITVRNLRIREDIAKYLRNLDPNSAYYDPKTRAMRENPYANAGKNPDEVSYAGDNFVRYTGDTISMAQTQLFAWEAYDKGSEVHLQADPTKLELLYKSFKVKKEDFKEQQKESILEKYGGQEHLDAPPAELLLAQTEDYVEYSRHGTVIKGQERAVACSKYEEDVKIHNHTHIWGSYWKEGRWGYKCCHSFFKYSYCTGEAGKEIVNSEECIINEITGEESVKKPQTLMELHQEKLKEEKKKKKKKKKKHRKSSSDSDDEEKKHEKLKKALNAEEARLLHVKETMQIDERKRPYNSMYETREPTEEEMEAYRMKRQRPDDPMASFLGQ
# B4: Cell division cycle 5-like protein [OS = Homo sapiens] (other, UniProt Q99459 1-802, looked up)
# chain: MPRIMIKGGVWRNTEDEILKAAVMKYGKNQWSRIASLLHRKSAKQCKARWYEWLDPSIKKTEWSREEEEKLLHLAKLMPTQWRTIAPIIGRTAAQCLEHYEFLLDKAAQRDNEEETTDDPRKLKPGEIDPNPETKPARPDPIDMDEDELEMLSEARARLANTQGKKAKRKAREKQLEEARRLAALQKRRELRAAGIEIQKKRKRKRGVDYNAEIPFEKKPALGFYDTSEENYQALDADFRKLRQQDLDGELRSEKEGRDRKKDKQHLKRKKESDLPSAILQTSGVSEFTKKRSKLVLPAPQISDAELQEVVKVGQASEIARQTAEESGITNSASSTLLSEYNVTNNSVALRTPRTPASQDRILQEAQNLMALTNVDTPLKGGLNTPLHESDFSGVTPQRQVVQTPNTVLSTPFRTPSNGAEGLTPRSGTTPKPVINSTPGRTPLRDKLNINPEDGMADYSDPSYVKQMERESREHLRLGLLGLPAPKNDFEIVLPENAEKELEEREIDDTYIEDAADVDARKQAIRDAERVKEMKRMHKAVQKDLPRPSEVNETILRPLNVEPPLTDLQKSEELIKKEMITMLHYDLLHHPYEPSGNKKGKTVGFGTNNSEHITYLEHNPYEKFSKEELKKAQDVLVQEMEVVKQGMSHGELSSEAYNQVWEECYSQVLYLPGQSRYTRANLASKKDRIESLEKRLEINRGHMTTEAKRAAKMEKKMKILLGGYQSRAMGLMKQLNDLWDQIEQAHLELRTFEELKKHEDSAIPRRLECLKEDVQRQQEREKELQHRYADLLLEKETLKSKF
# B5: 14-3-3 protein beta/alpha [OS = Homo sapiens] (other, UniProt P31946 1-246, looked up)
# chain: MTMDKSELVQKAKLAEQAERYDDMAAAMKAVTEQGHELSNEERNLLSVAYKNVVGARRSSWRVISSIEQKTERNEKKQQMGKEYREKIEAELQDICNDVLELLDKYLIPNATQPESKVFYLKMKGDYFRYLSEVASGDNKQTTVSNSQQAYQEAFEISKKEMQPTHPIRLGLALNFSVFYYEILNSPEKACSLAKTAFDEAIAELDTLNEESYKDSTLIMQLLRDNLTLWTSENQGDEGDAGEGEN
# B6: 2-amino-3-ketobutyrate coenzyme A ligase, mitochondrial [OS = Homo sapiens] (other, UniProt O75600 22-419, looked up)
# chain: SALAQLRGILEGELEGIRGAGTWKSERVITSRQGPHIRVDGVSGGILNFCANNYLGLSSHPEVIQAGLQALEEFGAGLSSVRFICGTQSIHKNLEAKIARFHQREDAILYPSCYDANAGLFEALLTPEDAVLSDELNHASIIDGIRLCKAHKYRYRHLDMADLEAKLQEAQKHRLRLVATDGAFSMDGDIAPLQEICCLASRYGALVFMDECHATGFLGPTGRGTDELLGVMDQVTIINSTLGKALGGASGGYTTGPGPLVSLLRQRARPYLFSNSLPPAVVGCASKALDLLMGSNTIVQSMAAKTQRFRSKMEAAGFTISGASHPICPVMLGDARLASRMADDMLKRGIFVIGFSYPVVPKGKARIRVQISAVHSEEDIDRCVEAFVEVGRLHGALP
# B7: Atherin [OS = Homo sapiens] (other, UniProt Q6SPF0 1-538, looked up)
# chain: MAGPPALPPPETAAAATTAAAASSSAASPHYQEWILDTIDSLRSRKARPDLERICRMVRRRHGPEPERTRAELEKLIQQRAVLRVSYKGSISYRNAARVQPPRRGATPPAPPRAPRGAPAAAAAAAPPPTPAPPPPPAPVAAAAPARAPRAAAAAATAPPSPGPAQPGPRAQRAAPLAAPPPAPAAPPAVAPPAGPRRAPPPAVAAREPPLPPPPQPPAPPQQQQPPPPQPQPPPEGGAVRAGGAARPVSLREVVRYLGGSGGAGGRLTRGRVQGLLEEEAAARGRLERTRLGALALPRGDRPGRAPPAASARPSRSKRGGEERVLEKEEEEDDDEDEDEEDDVSEGSEVPESDRPAGAQHHQLNGERGPQSAKERVKEWTPCGPHQGQDEGRGPAPGSGTRQVFSMAAMNKEGGTASVATGPDSPSPVPLPPGKPALPGADGTPFGCPPGRKEKPSDPVEWTVMDVVEYFTEAGFPEQATAFQEQEIDGKSLLLMQRTDVLTGLSIRLGPALKIYEHHIKVLQQGHFEDDDPDGFLG
# B8: Transformer-2 protein homolog alpha [OS = Homo sapiens] (other, UniProt Q13595 2-282, looked up)
# chain: SDVEENNFEGRESRSQSKSPTGTPARVKSESRSGSRSPSRVSKHSESHSRSRSKSRSRSRRHSHRRYTRSRSHSHSHRRRSRSRSYTPEYRRRRSRSHSPMSNRRRHTGSRANPDPNTCLGVFGLSLYTTERDLREVFSRYGPLSGVNVVYDQRTGRSRGFAFVYFERIDDSKEAMERANGMELDGRRIRVDYSITKRAHTPTPGIYMGRPTHSGGGGGGGGGGGGGGGGRRRDSYYDRGYDRGYDRYEDYDYRYRRRSPSPYYSRYRSRSRSRSYSPRRY
# B9: 14-3-3ζ S58E (other)
# chain: T1 sequence with S58E
# notes: also called S58E phosphomimetic; 14-3-3ζ with glutamate at residue 58
# Target: T1, 14-3-3ζ nhpSer58 with a FLAG tag at its …
# Test: not given
row,Binder,FC [fold]
1,B1,0.0561
2,B2,0.0531
3,B3,0.0628
4,B4,0.0607
5,B5,0.0486
6,B6,0.0267
7,B7,0.0524
8,B8,0.0906

# Target: the molecule itself
# Test: SEC-MALS (homodimer)
# Text: 14-3-3 dimerization can be regulated by phosphorylation of a serine residue at the dimer interface, e.g., serine residue 58 (Ser58).
row,Binder,binding result
1,B9,binds
